According to patent publication US20140087995A1 (published 2014):
Read-outs that look alike come from different tables or passages of the source. Numbered stars: 1 amine (or outer) side, 2 acyl side, 3 side chain; on linkers, the order of the positions; unused ones are H or OH. Bridge positions count the residues as written; N and C are the ends. Side chains are listed from the residue outwards. Ends that are not written are not given here. * marks the point of attachment. C20 diacid = O=C(O)CCCCCCCCCCCCCCCCCCC(=O)*; C18 diacid = O=C(O)CCCCCCCCCCCCCCCCC(=O)*; C16 diacid = O=C(O)CCCCCCCCCCCCCCC(=O)*; γGlu = O=C(O)[C@H](CCC(=O)[*:2])N[*:1]; C14 diacid = O=C(O)CCCCCCCCCCCCC(=O)*; AEEA = NCCOCCOCC(=O)O

T1: human calcitonin receptor (human, UniProt P30988 25-474)
T1 sequence (looked up): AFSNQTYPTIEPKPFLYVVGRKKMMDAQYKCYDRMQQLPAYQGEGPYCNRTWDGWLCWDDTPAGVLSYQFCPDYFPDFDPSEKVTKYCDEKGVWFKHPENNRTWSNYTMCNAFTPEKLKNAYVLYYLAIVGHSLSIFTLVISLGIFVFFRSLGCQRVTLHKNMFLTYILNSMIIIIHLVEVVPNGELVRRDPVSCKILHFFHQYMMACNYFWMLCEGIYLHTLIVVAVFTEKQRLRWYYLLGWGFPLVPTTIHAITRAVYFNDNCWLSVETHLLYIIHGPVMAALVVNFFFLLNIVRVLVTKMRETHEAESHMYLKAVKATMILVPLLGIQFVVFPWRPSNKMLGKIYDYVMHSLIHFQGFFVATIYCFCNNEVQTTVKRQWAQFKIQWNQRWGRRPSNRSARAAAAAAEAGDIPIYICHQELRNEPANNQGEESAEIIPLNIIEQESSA

T2: human calcitonin receptor (human, UniProt P30988 25-474)
T2 sequence (looked up): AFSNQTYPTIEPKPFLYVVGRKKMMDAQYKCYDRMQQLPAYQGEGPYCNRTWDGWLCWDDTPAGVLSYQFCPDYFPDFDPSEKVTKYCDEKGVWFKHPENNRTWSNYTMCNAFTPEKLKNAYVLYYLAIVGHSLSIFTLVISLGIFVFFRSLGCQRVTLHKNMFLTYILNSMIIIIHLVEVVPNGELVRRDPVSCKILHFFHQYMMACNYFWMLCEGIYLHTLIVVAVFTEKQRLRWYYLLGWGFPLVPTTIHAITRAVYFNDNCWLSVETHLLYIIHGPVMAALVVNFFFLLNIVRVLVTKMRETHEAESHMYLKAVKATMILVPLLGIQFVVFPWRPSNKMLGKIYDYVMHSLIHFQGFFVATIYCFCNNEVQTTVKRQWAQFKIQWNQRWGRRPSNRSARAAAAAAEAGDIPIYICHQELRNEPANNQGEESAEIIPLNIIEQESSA


Legend:
[1] = molecular target: T1, human calcitonin receptor; assay: cell-based or functional assay
[2] = molecular target: T2, human calcitonin receptor; assay: cell-based or functional assay; remark: listed apart in the source

Row | hCTR funct. EC50 (pM) [1] | hCTR funct. EC50 (pM) [2] | Binder
1 | 1480 pM | – | K([AEEA-C20 diacid])CNTATCATQRLANFLRHSSPNFGAIPSSTNVGHNTY-NH2 (disulfide 2-7; N-terminus assumed; SMILES CC[C@H](C)[C@H](NC(=O)[C@H](C)NC(=O)CNC(=O)[C@H](Cc1ccccc1)NC(=O)[C@H](CC(N)=O)NC(=O)[C@@H]1CCCN1C(=O)[C@H](CO)NC(=O)[C@H](CO)NC(=O)[C@H](Cc1c[nH]cn1)NC(=O)[C@H](CCCNC(=N)N)NC(=O)[C@H](CC(C)C)NC(=O)[C@H](Cc1ccccc1)NC(=O)[C@H](CC(N)=O)NC(=O)[C@H](C)NC(=O)[C@H](CC(C)C)NC(=O)[C@H](CCCNC(=N)N)NC(=O)[C@H](CCC(N)=O)NC(=O)[C@@H](NC(=O)[C@H](C)NC(=O)[C@@H]1CSSC[C@H](NC(=O)[C@@H](N)CCCCNC(=O)COCCOCCNC(=O)CCCCCCCCCCCCCCCCCCC(=O)O)C(=O)N[C@@H](CC(N)=O)C(=O)N[C@@H]([C@@H](C)O)C(=O)N[C@@H](C)C(=O)N[C@@H]([C@@H](C)O)C(=O)N1)[C@@H](C)O)C(=O)N1CCC[C@H]1C(=O)N[C@@H](CO)C(=O)N[C@@H](CO)C(=O)N[C@H](C(=O)N[C@@H](CC(N)=O)C(=O)N[C@H](C(=O)NCC(=O)N[C@@H](Cc1c[nH]cn1)C(=O)N[C@@H](CC(N)=O)C(=O)N[C@H](C(=O)N[C@@H](Cc1ccc(O)cc1)C(N)=O)[C@@H](C)O)C(C)C)[C@@H](C)O, also called compound 91) [N^ε1-[2-[2-[2-(19-carboxynonadecanoylamino)ethoxy]ethoxy]acetyl]-[Arg17,Pro21,Pro27,His34]-h-amylin]
2 | 11800 pM | – | K([AEEA-AEEA-γGlu-C20 diacid])CNTATCATQRLANFLRHSSPNFGAIPSSTNVGHNTY-NH2 (disulfide 2-7; N-terminus assumed; SMILES CC[C@H](C)[C@H](NC(=O)[C@H](C)NC(=O)CNC(=O)[C@H](Cc1ccccc1)NC(=O)[C@H](CC(N)=O)NC(=O)[C@@H]1CCCN1C(=O)[C@H](CO)NC(=O)[C@H](CO)NC(=O)[C@H](Cc1c[nH]cn1)NC(=O)[C@H](CCCNC(=N)N)NC(=O)[C@H](CC(C)C)NC(=O)[C@H](Cc1ccccc1)NC(=O)[C@H](CC(N)=O)NC(=O)[C@H](C)NC(=O)[C@H](CC(C)C)NC(=O)[C@H](CCCNC(=N)N)NC(=O)[C@H](CCC(N)=O)NC(=O)[C@@H](NC(=O)[C@H](C)NC(=O)[C@@H]1CSSC[C@H](NC(=O)[C@@H](N)CCCCNC(=O)COCCOCCNC(=O)COCCOCCNC(=O)CC[C@H](NC(=O)CCCCCCCCCCCCCCCCCCC(=O)O)C(=O)O)C(=O)N[C@@H](CC(N)=O)C(=O)N[C@@H]([C@@H](C)O)C(=O)N[C@@H](C)C(=O)N[C@@H]([C@@H](C)O)C(=O)N1)[C@@H](C)O)C(=O)N1CCC[C@H]1C(=O)N[C@@H](CO)C(=O)N[C@@H](CO)C(=O)N[C@H](C(=O)N[C@@H](CC(N)=O)C(=O)N[C@H](C(=O)NCC(=O)N[C@@H](Cc1c[nH]cn1)C(=O)N[C@@H](CC(N)=O)C(=O)N[C@H](C(=O)N[C@@H](Cc1ccc(O)cc1)C(N)=O)[C@@H](C)O)C(C)C)[C@@H](C)O, also called compound 97)
3 | 1140 pM | – | K([γGlu-C20 diacid])CNTATCATQRLAAFLRHSSPNFGAIPSSTNVGHNTY-NH2 (disulfide 2-7; N-terminus assumed; SMILES CC[C@H](C)[C@H](NC(=O)[C@H](C)NC(=O)CNC(=O)[C@H](Cc1ccccc1)NC(=O)[C@H](CC(N)=O)NC(=O)[C@@H]1CCCN1C(=O)[C@H](CO)NC(=O)[C@H](CO)NC(=O)[C@H](Cc1c[nH]cn1)NC(=O)[C@H](CCCNC(=N)N)NC(=O)[C@H](CC(C)C)NC(=O)[C@H](Cc1ccccc1)NC(=O)[C@H](C)NC(=O)[C@H](C)NC(=O)[C@H](CC(C)C)NC(=O)[C@H](CCCNC(=N)N)NC(=O)[C@H](CCC(N)=O)NC(=O)[C@@H](NC(=O)[C@H](C)NC(=O)[C@@H]1CSSC[C@H](NC(=O)[C@@H](N)CCCCNC(=O)CC[C@H](NC(=O)CCCCCCCCCCCCCCCCCCC(=O)O)C(=O)O)C(=O)N[C@@H](CC(N)=O)C(=O)N[C@@H]([C@@H](C)O)C(=O)N[C@@H](C)C(=O)N[C@@H]([C@@H](C)O)C(=O)N1)[C@@H](C)O)C(=O)N1CCC[C@H]1C(=O)N[C@@H](CO)C(=O)N[C@@H](CO)C(=O)N[C@H](C(=O)N[C@@H](CC(N)=O)C(=O)N[C@H](C(=O)NCC(=O)N[C@@H](Cc1c[nH]cn1)C(=O)N[C@@H](CC(N)=O)C(=O)N[C@H](C(=O)N[C@@H](Cc1ccc(O)cc1)C(N)=O)[C@@H](C)O)C(C)C)[C@@H](C)O, also called compound 93)
4 | 1090 pM | – | K([γGlu-C14 diacid])CNTATCATQRLANFLRHSSPNFGAIPSSTNVGHNTY-NH2 (disulfide 2-7; N-terminus assumed; SMILES CC[C@H](C)[C@H](NC(=O)[C@H](C)NC(=O)CNC(=O)[C@H](Cc1ccccc1)NC(=O)[C@H](CC(N)=O)NC(=O)[C@@H]1CCCN1C(=O)[C@H](CO)NC(=O)[C@H](CO)NC(=O)[C@H](Cc1c[nH]cn1)NC(=O)[C@H](CCCNC(=N)N)NC(=O)[C@H](CC(C)C)NC(=O)[C@H](Cc1ccccc1)NC(=O)[C@H](CC(N)=O)NC(=O)[C@H](C)NC(=O)[C@H](CC(C)C)NC(=O)[C@H](CCCNC(=N)N)NC(=O)[C@H](CCC(N)=O)NC(=O)[C@@H](NC(=O)[C@H](C)NC(=O)[C@@H]1CSSC[C@H](NC(=O)[C@@H](N)CCCCNC(=O)CC[C@H](NC(=O)CCCCCCCCCCCCC(=O)O)C(=O)O)C(=O)N[C@@H](CC(N)=O)C(=O)N[C@@H]([C@@H](C)O)C(=O)N[C@@H](C)C(=O)N[C@@H]([C@@H](C)O)C(=O)N1)[C@@H](C)O)C(=O)N1CCC[C@H]1C(=O)N[C@@H](CO)C(=O)N[C@@H](CO)C(=O)N[C@H](C(=O)N[C@@H](CC(N)=O)C(=O)N[C@H](C(=O)NCC(=O)N[C@@H](Cc1c[nH]cn1)C(=O)N[C@@H](CC(N)=O)C(=O)N[C@H](C(=O)N[C@@H](Cc1ccc(O)cc1)C(N)=O)[C@@H](C)O)C(C)C)[C@@H](C)O) [N^ε1-[(4S)-4-carboxy-4-(13-carboxytridecanoylamino)butanoyl]-[Arg17,Pro21,Pro27,His34]-h-amylin]
5 | 2210 pM | – | K([γGlu-C16 diacid])CNTATCATQRLANFLRHSSPNFGAIPSSTNVGHNTY-NH2 (disulfide 2-7; N-terminus assumed; SMILES CC[C@H](C)[C@H](NC(=O)[C@H](C)NC(=O)CNC(=O)[C@H](Cc1ccccc1)NC(=O)[C@H](CC(N)=O)NC(=O)[C@@H]1CCCN1C(=O)[C@H](CO)NC(=O)[C@H](CO)NC(=O)[C@H](Cc1c[nH]cn1)NC(=O)[C@H](CCCNC(=N)N)NC(=O)[C@H](CC(C)C)NC(=O)[C@H](Cc1ccccc1)NC(=O)[C@H](CC(N)=O)NC(=O)[C@H](C)NC(=O)[C@H](CC(C)C)NC(=O)[C@H](CCCNC(=N)N)NC(=O)[C@H](CCC(N)=O)NC(=O)[C@@H](NC(=O)[C@H](C)NC(=O)[C@@H]1CSSC[C@H](NC(=O)[C@@H](N)CCCCNC(=O)CC[C@H](NC(=O)CCCCCCCCCCCCCCC(=O)O)C(=O)O)C(=O)N[C@@H](CC(N)=O)C(=O)N[C@@H]([C@@H](C)O)C(=O)N[C@@H](C)C(=O)N[C@@H]([C@@H](C)O)C(=O)N1)[C@@H](C)O)C(=O)N1CCC[C@H]1C(=O)N[C@@H](CO)C(=O)N[C@@H](CO)C(=O)N[C@H](C(=O)N[C@@H](CC(N)=O)C(=O)N[C@H](C(=O)NCC(=O)N[C@@H](Cc1c[nH]cn1)C(=O)N[C@@H](CC(N)=O)C(=O)N[C@H](C(=O)N[C@@H](Cc1ccc(O)cc1)C(N)=O)[C@@H](C)O)C(C)C)[C@@H](C)O) [N^ε1-[(4S)-4-carboxy-4-(15-carboxypentadecanoylamino)butanoyl]-[Arg17,Pro21,Pro27,His34]-h-amylin]
6 | 5850 pM | – | K([γGlu-C18 diacid])CNTATCATQRLANFLRHSSPNFGAIPSSTNVGHNTY-NH2 (disulfide 2-7; N-terminus assumed; SMILES CC[C@H](C)[C@H](NC(=O)[C@H](C)NC(=O)CNC(=O)[C@H](Cc1ccccc1)NC(=O)[C@H](CC(N)=O)NC(=O)[C@@H]1CCCN1C(=O)[C@H](CO)NC(=O)[C@H](CO)NC(=O)[C@H](Cc1c[nH]cn1)NC(=O)[C@H](CCCNC(=N)N)NC(=O)[C@H](CC(C)C)NC(=O)[C@H](Cc1ccccc1)NC(=O)[C@H](CC(N)=O)NC(=O)[C@H](C)NC(=O)[C@H](CC(C)C)NC(=O)[C@H](CCCNC(=N)N)NC(=O)[C@H](CCC(N)=O)NC(=O)[C@@H](NC(=O)[C@H](C)NC(=O)[C@@H]1CSSC[C@H](NC(=O)[C@@H](N)CCCCNC(=O)CC[C@H](NC(=O)CCCCCCCCCCCCCCCCC(=O)O)C(=O)O)C(=O)N[C@@H](CC(N)=O)C(=O)N[C@@H]([C@@H](C)O)C(=O)N[C@@H](C)C(=O)N[C@@H]([C@@H](C)O)C(=O)N1)[C@@H](C)O)C(=O)N1CCC[C@H]1C(=O)N[C@@H](CO)C(=O)N[C@@H](CO)C(=O)N[C@H](C(=O)N[C@@H](CC(N)=O)C(=O)N[C@H](C(=O)NCC(=O)N[C@@H](Cc1c[nH]cn1)C(=O)N[C@@H](CC(N)=O)C(=O)N[C@H](C(=O)N[C@@H](Cc1ccc(O)cc1)C(N)=O)[C@@H](C)O)C(C)C)[C@@H](C)O) [N^ε1-[(4S)-4-carboxy-4-(17-carboxyheptadecanoylamino)butanoyl]-[Arg17,Pro21,Pro27,His34]-h-amylin]
7 | – | 841 pM | K([γGlu-C20 diacid])CNTATCATQRLAEFLRHSSPNFGAIPSSTNVGPETY-NH2 (disulfide 2-7 (inferred), Synthetic)
8 | – | 2140 pM | K([γGlu-γGlu-C20 diacid])CNTATCATQRLAEFLRHSSPNFGAIPSSTNVGPNTF-NH2 (disulfide 2-7 (inferred), Synthetic)
9 | – | 887 pM | K([γGlu-γGlu-C20 diacid])CNTATCATQRLASFLRHSSPNFGAIPSSTNVGPETY-NH2 (disulfide 2-7 (inferred), Synthetic; also called compound 120)
